Publication PMC5397176
pKd: −log10 of the molar value.

Target: Cy3–Cy5 labeled nucleosome containing H3KC36me3 (human) (UniProt Q71DI3)
Experiment: other fluorescence titration

pKd: 4.70
S1/2 of the PHF1(2–87) titration at constant LexA: 16 µM
Substance: PHF1(2–87) (domain or fragment)
